The results in this text go back to PMC8551079.

Read-outs that look alike come from different tables or passages of the source.

In series [1] the target is T1, MYB70 (Arabidopsis thaliana, UniProt O22179 1-309). The series can be described thus: EMSA. In general terms: In EMSA bound probe runs differently from free probe, usually more slowly.
The target in series [2] is T1, MYB70. The series can be described thus: EMSA. This is another data set of the same source.

B1: GPAT5 probe (dsDNA)
DNA 1: AATCATAGTTTTGTTACAAGCGAAATCTGAAA
DNA 2: TTTCAGATTTCGCTTGTAACAAAACTATGATT
Regarding B1, the binding result with MYB70 [1] is listed as “binds”.

B2: GH3.3 probe (dsDNA)
DNA 1: ATCAAGAATTAGTTTTAGTTATCAATAAATAGGA
DNA 2: TCCTATTTATTGATAACTAAAACTAATTCTTGAT
Regarding B2, the binding result in the series with MYB70 [2] is recorded as “binds”.

B3: PER57 probe (PER probe) (dsDNA)
DNA 1: GCCTCAACTAATAAGTTGTTATGTGCAA
DNA 2: TTGCACATAACAACTTATTAGTTGAGGC
Take B3: the binding result with MYB70 [1] is recorded as “binds”.
